According to patent US20120135923A1 (IPSEN PHARMA S A S, published 2012):
Bridge positions count the residues as written; N and C are the ends. Square brackets hold non-standard residues; d marks the D form. 1Nal = N[C@@H](Cc1cccc2ccccc12)C(=O)O; 2Nal = N[C@@H](Cc1ccc2ccccc2c1)C(=O)O; d2Nal = N[C@H](Cc1ccc2ccccc2c1)C(=O)O; Bta = N[C@@H](Cc1csc2ccccc12)C(=O)O; βAla = NCCC(=O)O

Experiments:
Assay in all cases: [125I]-NDP-α-MSH competition, membranes
[1] = target: T1, human melanocortin receptor subtype 4 (hMC4-R) (human, UniProt P32245 1-332)
T1 construct: whole, on cells; membranes of CHO-K1 cells
Procedure: (§1) Cellular membranes used for the in vitro receptor binding assays were obtained from transgenic CHO-K1 cells stably expressing hMC-R receptor subtypes 1, 3, 4 or 5. […] The pellets were resuspended in the same buffer and centrifuged at 50,000 g for 10 minutes at approximately 4° C. The washed pellets containing the cellular membranes were stored at approximately −80° C.
(§2) Competitive inhibition of [¹²⁵I](Tyr²)-(Nle⁴-D-Phe⁷)α-MSH ([¹²⁵I]-NDP-α-MSH, Amersham Biosciences®) binding was carried out in polypropylene 96 well plates. Cell membranes (1-10 μg protein/well) prepared as described above were incubated in 50 mM Tris-HCl at pH 7.4 containing 0.2% bovine serum albumin (BSA), 5 mM MgCl₂, 1 mM CaCl₂ and 0.1 mg/mL bacitracin, with increasing concentrations of the test compound and 0.1-0.3 nM […] for approximately 90-120 minutes at approximately 37° C. Bound [¹²⁵I]-NDP-α-MSH ligand was separated from free [¹²⁵I]-NDP-α-MSH by filtration through GF/C glass fiber filter plates (Unifilter®; Packard) presoaked with 0.1% (w/v) polyethylenimine (PEI), using a Packard Filtermate® harvester. Filters were washed three times with 50 mM Tris-HCl at pH 7.4 at a temperature of approximately 0-4° C. and then assayed for radioactivity using a Packard Topcount® scintillation counter. Binding data were analyzed by computer-assisted non-linear regression analysis (XL fit; IDBS).

[2] = target: T2, human melanocortin receptor subtype 1 (hMC1-R) (human, UniProt Q01726 1-317)
T2 construct: whole, on cells; membranes of CHO-K1 cells
Procedure: as §1, §2

[3] = target: T3, human melanocortin receptor subtype 5 (hMC5-R) (human, UniProt P33032 1-325)
T3 construct: whole, on cells; membranes of CHO-K1 cells
Procedure: as §1, §2

[4] = target: T4, human melanocortin receptor subtype 3 (hMC3-R) (human, UniProt P41968 1-323)
T4 construct: whole, on cells; membranes of CHO-K1 cells
Procedure: as §1, §2

T3 sequence (P33032 whole entry): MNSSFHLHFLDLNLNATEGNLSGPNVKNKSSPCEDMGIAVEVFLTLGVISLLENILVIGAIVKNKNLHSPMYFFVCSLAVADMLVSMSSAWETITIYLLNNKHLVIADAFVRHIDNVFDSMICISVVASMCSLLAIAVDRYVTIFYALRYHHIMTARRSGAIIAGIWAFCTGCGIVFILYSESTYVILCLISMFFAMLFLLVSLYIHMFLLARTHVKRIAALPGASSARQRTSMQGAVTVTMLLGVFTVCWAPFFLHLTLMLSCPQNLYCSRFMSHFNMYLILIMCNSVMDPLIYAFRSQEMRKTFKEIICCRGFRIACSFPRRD
T2 sequence (Q01726 whole entry): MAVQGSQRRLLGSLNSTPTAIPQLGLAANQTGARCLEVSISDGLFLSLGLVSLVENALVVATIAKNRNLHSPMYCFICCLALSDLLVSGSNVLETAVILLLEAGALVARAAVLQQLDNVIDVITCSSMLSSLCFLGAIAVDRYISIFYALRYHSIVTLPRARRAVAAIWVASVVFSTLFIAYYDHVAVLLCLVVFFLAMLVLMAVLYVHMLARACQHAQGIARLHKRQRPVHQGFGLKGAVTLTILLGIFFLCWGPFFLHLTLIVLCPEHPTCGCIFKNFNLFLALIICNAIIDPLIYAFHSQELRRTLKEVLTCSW
T4 sequence (P41968 whole entry): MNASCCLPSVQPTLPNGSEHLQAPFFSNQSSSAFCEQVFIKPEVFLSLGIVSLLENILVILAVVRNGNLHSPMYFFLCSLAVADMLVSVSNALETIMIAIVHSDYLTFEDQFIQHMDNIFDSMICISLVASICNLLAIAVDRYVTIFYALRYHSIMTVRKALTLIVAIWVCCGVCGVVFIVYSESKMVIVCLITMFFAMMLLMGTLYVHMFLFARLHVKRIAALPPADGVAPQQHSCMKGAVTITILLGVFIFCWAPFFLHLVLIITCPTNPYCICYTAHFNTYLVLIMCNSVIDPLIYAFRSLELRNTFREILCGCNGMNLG
T1 sequence (P32245 whole entry): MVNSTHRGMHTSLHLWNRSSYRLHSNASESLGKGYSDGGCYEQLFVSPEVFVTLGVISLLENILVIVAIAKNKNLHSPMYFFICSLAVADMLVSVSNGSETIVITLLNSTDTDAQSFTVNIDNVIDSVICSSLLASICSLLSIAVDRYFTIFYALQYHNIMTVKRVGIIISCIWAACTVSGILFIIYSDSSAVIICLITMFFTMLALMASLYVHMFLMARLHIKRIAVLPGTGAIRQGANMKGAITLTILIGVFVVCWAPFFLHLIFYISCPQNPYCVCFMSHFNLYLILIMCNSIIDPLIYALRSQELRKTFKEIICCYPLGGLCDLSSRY

Binder | Ki [1] [nM] | Ki [2] [nM] | Ki [3] [nM] | Ki [4] [nM]
Ac-CEH[d2Nal]R[2Nal]ACPPKD[βAla]YGRKRRRQRRR-NH2 (disulfide 1-8; SMILES CC(=O)N[C@H]1CSSC[C@@H](C(=O)N2CCC[C@H]2C(=O)N2CCC[C@H]2C(=O)N[C@@H](CCCCN)C(=O)N[C@@H](CC(=O)O)C(=O)NCCC(=O)N[C@@H](Cc2ccc(O)cc2)C(=O)NCC(=O)N[C@@H](CCCNC(=N)N)C(=O)N[C@@H](CCCCN)C(=O)N[C@@H](CCCNC(=N)N)C(=O)N[C@@H](CCCNC(=N)N)C(=O)N[C@@H](CCCNC(=N)N)C(=O)N[C@@H](CCC(N)=O)C(=O)N[C@@H](CCCNC(=N)N)C(=O)N[C@@H](CCCNC(=N)N)C(=O)N[C@@H](CCCNC(=N)N)C(N)=O)NC(=O)[C@H](C)NC(=O)[C@H](Cc2ccc3ccccc3c2)NC(=O)[C@H](CCCNC(=N)N)NC(=O)[C@@H](Cc2ccc3ccccc3c2)NC(=O)[C@H](Cc2c[nH]cn2)NC(=O)[C@H](CCC(=O)O)NC1=O) | 0.865 | 1.49 | 3.13 | 0.604
Ac-CEH[d2Nal]R[Bta]ACPPKD[βAla]YGRRKRRQRRR-NH2 (disulfide 1-8; SMILES CC(=O)N[C@H]1CSSC[C@@H](C(=O)N2CCC[C@H]2C(=O)N2CCC[C@H]2C(=O)N[C@@H](CCCCN)C(=O)N[C@@H](CC(=O)O)C(=O)NCCC(=O)N[C@@H](Cc2ccc(O)cc2)C(=O)NCC(=O)N[C@@H](CCCNC(=N)N)C(=O)N[C@@H](CCCNC(=N)N)C(=O)N[C@@H](CCCCN)C(=O)N[C@@H](CCCNC(=N)N)C(=O)N[C@@H](CCCNC(=N)N)C(=O)N[C@@H](CCC(N)=O)C(=O)N[C@@H](CCCNC(=N)N)C(=O)N[C@@H](CCCNC(=N)N)C(=O)N[C@@H](CCCNC(=N)N)C(N)=O)NC(=O)[C@H](C)NC(=O)[C@H](Cc2csc3ccccc23)NC(=O)[C@H](CCCNC(=N)N)NC(=O)[C@@H](Cc2ccc3ccccc3c2)NC(=O)[C@H](Cc2c[nH]cn2)NC(=O)[C@H](CCC(=O)O)NC1=O) | 0.437 | 2.24 | 16.4 | 1.57
Ac-CEH[d2Nal]R[Bta]ACPPKD[βAla]YGRRRRRQRRR-NH2 (disulfide 1-8; SMILES CC(=O)N[C@H]1CSSC[C@@H](C(=O)N2CCC[C@H]2C(=O)N2CCC[C@H]2C(=O)N[C@@H](CCCCN)C(=O)N[C@@H](CC(=O)O)C(=O)NCCC(=O)N[C@@H](Cc2ccc(O)cc2)C(=O)NCC(=O)N[C@@H](CCCNC(=N)N)C(=O)N[C@@H](CCCNC(=N)N)C(=O)N[C@@H](CCCNC(=N)N)C(=O)N[C@@H](CCCNC(=N)N)C(=O)N[C@@H](CCCNC(=N)N)C(=O)N[C@@H](CCC(N)=O)C(=O)N[C@@H](CCCNC(=N)N)C(=O)N[C@@H](CCCNC(=N)N)C(=O)N[C@@H](CCCNC(=N)N)C(N)=O)NC(=O)[C@H](C)NC(=O)[C@H](Cc2csc3ccccc23)NC(=O)[C@H](CCCNC(=N)N)NC(=O)[C@@H](Cc2ccc3ccccc3c2)NC(=O)[C@H](Cc2c[nH]cn2)NC(=O)[C@H](CCC(=O)O)NC1=O) | 0.498 | 3.07 | 31.1 | 4.05
Ac-CEH[d2Nal]R[Bta]ACPPKD[βAla]RRRRRQRRR-NH2 (disulfide 1-8) | 0.192 | 3.86 | 38.3 | 4.97
Ac-CEH[d2Nal]R[1Nal]ACPPKD[βAla]RRKRRQRRR-NH2 (disulfide 1-8; SMILES CC(=O)N[C@H]1CSSC[C@@H](C(=O)N2CCC[C@H]2C(=O)N2CCC[C@H]2C(=O)N[C@@H](CCCCN)C(=O)N[C@@H](CC(=O)O)C(=O)NCCC(=O)N[C@@H](CCCNC(=N)N)C(=O)N[C@@H](CCCNC(=N)N)C(=O)N[C@@H](CCCCN)C(=O)N[C@@H](CCCNC(=N)N)C(=O)N[C@@H](CCCNC(=N)N)C(=O)N[C@@H](CCC(N)=O)C(=O)N[C@@H](CCCNC(=N)N)C(=O)N[C@@H](CCCNC(=N)N)C(=O)N[C@@H](CCCNC(=N)N)C(N)=O)NC(=O)[C@H](C)NC(=O)[C@H](Cc2cccc3ccccc23)NC(=O)[C@H](CCCNC(=N)N)NC(=O)[C@@H](Cc2ccc3ccccc3c2)NC(=O)[C@H](Cc2c[nH]cn2)NC(=O)[C@H](CCC(=O)O)NC1=O) [Ac-c(Cys-Glu-His-D-2-Nal-Arg-1-Nal-Ala-Cys)-Pro-Pro-Lys-Asp-β-[…]NH2] | 0.505 | 4.62 | 45.3 | 5.68
Ac-CEH[d2Nal]R[2Nal]ACPPKD[βAla]RRKRRQRRR-NH2 (disulfide 1-8; SMILES CC(=O)N[C@H]1CSSC[C@@H](C(=O)N2CCC[C@H]2C(=O)N2CCC[C@H]2C(=O)N[C@@H](CCCCN)C(=O)N[C@@H](CC(=O)O)C(=O)NCCC(=O)N[C@@H](CCCNC(=N)N)C(=O)N[C@@H](CCCNC(=N)N)C(=O)N[C@@H](CCCCN)C(=O)N[C@@H](CCCNC(=N)N)C(=O)N[C@@H](CCCNC(=N)N)C(=O)N[C@@H](CCC(N)=O)C(=O)N[C@@H](CCCNC(=N)N)C(=O)N[C@@H](CCCNC(=N)N)C(=O)N[C@@H](CCCNC(=N)N)C(N)=O)NC(=O)[C@H](C)NC(=O)[C@H](Cc2ccc3ccccc3c2)NC(=O)[C@H](CCCNC(=N)N)NC(=O)[C@@H](Cc2ccc3ccccc3c2)NC(=O)[C@H](Cc2c[nH]cn2)NC(=O)[C@H](CCC(=O)O)NC1=O) | 0.549 | 3.41 | 11.3 | 0.975
Ac-CEH[d2Nal]R[Bta]ACPPRD[βAla]RRRRRQRRR-NH2 (disulfide 1-8; SMILES CC(=O)N[C@H]1CSSC[C@@H](C(=O)N2CCC[C@H]2C(=O)N2CCC[C@H]2C(=O)N[C@@H](CCCNC(=N)N)C(=O)N[C@@H](CC(=O)O)C(=O)NCCC(=O)N[C@@H](CCCNC(=N)N)C(=O)N[C@@H](CCCNC(=N)N)C(=O)N[C@@H](CCCNC(=N)N)C(=O)N[C@@H](CCCNC(=N)N)C(=O)N[C@@H](CCCNC(=N)N)C(=O)N[C@@H](CCC(N)=O)C(=O)N[C@@H](CCCNC(=N)N)C(=O)N[C@@H](CCCNC(=N)N)C(=O)N[C@@H](CCCNC(=N)N)C(N)=O)NC(=O)[C@H](C)NC(=O)[C@H](Cc2csc3ccccc23)NC(=O)[C@H](CCCNC(=N)N)NC(=O)[C@@H](Cc2ccc3ccccc3c2)NC(=O)[C@H](Cc2c[nH]cn2)NC(=O)[C@H](CCC(=O)O)NC1=O) [Ac-c(Cys-Glu-His-D-2-Nal-Arg-Bal-Ala-Cys)-Pro-Pro-Arg-Asp-β-[…]NH2] | 0.302 | 4.11 | 48.3 | 7.26
Ac-CEH[d2Nal]R[2Nal]ACPPKD[βAla]RKRRRQRRR-NH2 (disulfide 1-8; SMILES CC(=O)N[C@H]1CSSC[C@@H](C(=O)N2CCC[C@H]2C(=O)N2CCC[C@H]2C(=O)N[C@@H](CCCCN)C(=O)N[C@@H](CC(=O)O)C(=O)NCCC(=O)N[C@@H](CCCNC(=N)N)C(=O)N[C@@H](CCCCN)C(=O)N[C@@H](CCCNC(=N)N)C(=O)N[C@@H](CCCNC(=N)N)C(=O)N[C@@H](CCCNC(=N)N)C(=O)N[C@@H](CCC(N)=O)C(=O)N[C@@H](CCCNC(=N)N)C(=O)N[C@@H](CCCNC(=N)N)C(=O)N[C@@H](CCCNC(=N)N)C(N)=O)NC(=O)[C@H](C)NC(=O)[C@H](Cc2ccc3ccccc3c2)NC(=O)[C@H](CCCNC(=N)N)NC(=O)[C@@H](Cc2ccc3ccccc3c2)NC(=O)[C@H](Cc2c[nH]cn2)NC(=O)[C@H](CCC(=O)O)NC1=O) | 0.303 | 2.25 | 2.77 | 0.62
Ac-CEH[d2Nal]R[1Nal]ACPPRD[βAla]RRRRRQRRR-NH2 (disulfide 1-8; SMILES CC(=O)N[C@H]1CSSC[C@@H](C(=O)N2CCC[C@H]2C(=O)N2CCC[C@H]2C(=O)N[C@@H](CCCNC(=N)N)C(=O)N[C@@H](CC(=O)O)C(=O)NCCC(=O)N[C@@H](CCCNC(=N)N)C(=O)N[C@@H](CCCNC(=N)N)C(=O)N[C@@H](CCCNC(=N)N)C(=O)N[C@@H](CCCNC(=N)N)C(=O)N[C@@H](CCCNC(=N)N)C(=O)N[C@@H](CCC(N)=O)C(=O)N[C@@H](CCCNC(=N)N)C(=O)N[C@@H](CCCNC(=N)N)C(=O)N[C@@H](CCCNC(=N)N)C(N)=O)NC(=O)[C@H](C)NC(=O)[C@H](Cc2cccc3ccccc23)NC(=O)[C@H](CCCNC(=N)N)NC(=O)[C@@H](Cc2ccc3ccccc3c2)NC(=O)[C@H](Cc2c[nH]cn2)NC(=O)[C@H](CCC(=O)O)NC1=O) [Ac-c(Cys-Glu-His-D-2-Nal-Arg-1-Nal-Ala-Cys)-Pro-Pro-Arg-Asp-β-[…]NH2] | 0.293 | 2.93 | 59 | 9.07
